According to PMC8067709, “Crystal Structure of the Epo1-Bem3 Complex for Bud Growth” (International Journal of Molecular Sciences, 2021):

Columns and labels:
[1] = molecular target: Scs2-Msp (1-128), N-His (Saccharomyces cerevisiae) (UniProt P40075); experiment: MST; Monolith NT.115; RED-tris-NTA labeled N-His Scs2-Msp (100 nM) with a serial dilution of Epo1, Bem3 or EB complex from 2 mM; 20 mM Tris-HCl pH 8.0, 150 mM NaCl, 4 mM MgCl2, 0.05% Tween 20
[2] = molecular target: T1, Epo1^CC2-CC4 (746-943) with 6xHis tag, isolated protein; experiment: SPR; settings: chain shown with the change;; parent: 72.65
T1 chain: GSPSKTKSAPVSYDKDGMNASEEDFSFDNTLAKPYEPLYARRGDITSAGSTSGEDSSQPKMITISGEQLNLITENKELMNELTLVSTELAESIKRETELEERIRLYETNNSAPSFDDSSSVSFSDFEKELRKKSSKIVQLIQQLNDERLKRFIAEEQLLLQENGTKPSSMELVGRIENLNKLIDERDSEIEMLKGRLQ

[3] = molecular target: the molecule itself; experiment: SEC-MALS; Superdex 200 10/300 with DAWN HELEOS II; 100 uL of 2-4 mg/mL protein; 20 mM Tris pH 8.0, 150 mM NaCl, 4 mM MgCl2
[4] = molecular target: Epo1^CC2-CC4 (746-943) with 6xHis tag, isolated protein (Saccharomyces cerevisiae); experiment: as above
[5] = molecular target: T2, Bem3^CC1 (1-99) with 6xHis tag, isolated protein (Saccharomyces cerevisiae, UniProt P32873 1-99); experiment: SPR
T2 chain: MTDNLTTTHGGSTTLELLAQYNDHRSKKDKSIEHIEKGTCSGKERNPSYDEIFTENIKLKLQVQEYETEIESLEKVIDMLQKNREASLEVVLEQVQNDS

Sequence of Scs2-Msp (1-128), N-His (Saccharomyces cerevisiae) (P40075 1-128): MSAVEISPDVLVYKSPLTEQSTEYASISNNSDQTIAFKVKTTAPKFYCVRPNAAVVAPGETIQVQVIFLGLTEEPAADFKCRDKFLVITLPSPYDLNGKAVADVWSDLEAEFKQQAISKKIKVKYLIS

| Molecule | Kd [1] [µM] | Kd [5] [µM] | further results |
| --- | --- | --- | --- |
| Epo1^CC2-CC4-Bem3^CC1 complex (from UniProt P32873 1-99) | 120 |  |  |
| Bem3^CC1 (1-99) with 6xHis tag, isolated protein, P32873 R84A (protein) MTDNLTTTHGGSTTLELLAQYNDHRSKKDKSIEHIEKGTCSGKERNPSYDEIFTENIKLKLQVQEYETEIESLEKVIDMLQKNAEASLEVVLEQVQNDS |  |  | Kd [2]: 137 µM |
| Bem3^CC1 (1-99) with 6xHis tag, isolated protein (domain or fragment, Saccharomyces cerevisiae, UniProt P32873 1-99, looked up, Bem3, Saccharomyces cerevisiae, residues 1-99 (CC1 domain); Dimer in solution by MALS; theoretical molecular mass printed as 11.39 kDa; also called N-His-unlabeled Bem3^CC1; wild-type (wt) Bem3^CC1; source: pET-22b construct, purified (Hitrap Q ion-exchange); not shown: 6xHis, N-terminal, kept) MTDNLTTTHGGSTTLELLAQYNDHRSKKDKSIEHIEKGTCSGKERNPSYDEIFTENIKLKLQVQEYETEIESLEKVIDMLQKNREASLEVVLEQVQNDS |  |  | stoichiometry N [3]: 2 |
| Epo1^CC2-CC4 (746-943) with 6xHis tag, isolated protein (domain or fragment) GSPSKTKSAPVSYDKDGMNASEEDFSFDNTLAKPYEPLYARRGDITSAGSTSGEDSSQPKMITISGEQLNLITENKELMNELTLVSTELAESIKRETELEERIRLYETNNSAPSFDDSSSVSFSDFEKELRKKSSKIVQLIQQLNDERLKRFIAEEQLLLQENGTKPSSMELVGRIENLNKLIDERDSEIEMLKGRLQ | 170 | 72.7 | stoichiometry N [4]: 2 |
| Epo1CC2-CC4-Q888A (protein, Entity 1 of 6LP3 is Epo1 (YMR124W) 746-943, so entity position = residue number - 745 (Q888 = 143, K881 = 136, R876 = 131). Q888A is taken from the figure label; the text says Q884A and the legend Q88A. Epo1 CC2-CC4 alone is a homodimer in solution; one chain is given.) GSPSKTKSAPVSYDKDGMNASEEDFSFDNTLAKPYEPLYARRGDITSAGSTSGEDSSQPKMITISGEQLNLITENKELMNELTLVSTELAESIKRETELEERIRLYETNNSAPSFDDSSSVSFSDFEKELRKKSSKIVQLIQALNDERLKRFIAEEQLLLQENGTKPSSMELVGRIENLNKLIDERDSEIEMLKGRLQ |  | 115 |  |
| Epo1-CC-K881A (domain or fragment) GSPSKTKSAPVSYDKDGMNASEEDFSFDNTLAKPYEPLYARRGDITSAGSTSGEDSSQPKMITISGEQLNLITENKELMNELTLVSTELAESIKRETELEERIRLYETNNSAPSFDDSSSVSFSDFEKELRKKSSAIVQLIQQLNDERLKRFIAEEQLLLQENGTKPSSMELVGRIENLNKLIDERDSEIEMLKGRLQ |  | 375 |  |
